This note sets out measurements from patent publication WO2018134389A1.

The target of the experiment is DC-SIGN ECD immobilised on a streptactin-functionalised SPR surface (human) (UniProt Q9NNX6).
Chain of DC-SIGN ECD immobilised on a streptactin-functionalised SPR surface (human) (Q9NNX6 59-404): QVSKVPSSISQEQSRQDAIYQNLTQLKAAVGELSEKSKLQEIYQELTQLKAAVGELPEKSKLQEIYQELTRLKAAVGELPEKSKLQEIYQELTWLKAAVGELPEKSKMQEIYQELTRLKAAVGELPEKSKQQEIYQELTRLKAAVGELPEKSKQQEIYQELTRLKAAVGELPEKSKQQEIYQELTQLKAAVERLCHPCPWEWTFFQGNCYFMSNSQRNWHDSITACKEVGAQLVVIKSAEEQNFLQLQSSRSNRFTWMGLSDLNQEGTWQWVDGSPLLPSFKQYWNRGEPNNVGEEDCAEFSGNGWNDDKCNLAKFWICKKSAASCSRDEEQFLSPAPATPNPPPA

One may read the Kd as the free concentration of one partner at which half of the binding sites on the other are occupied at equilibrium, for simple one-to-one binding. Read a high Kd as weaker binding. As for “HCMV gB treated with a(2 to 3,6)-neuraminidase (sialic acids removed) (from UniProt P13201 25-907) (ligand)”, the equilibrium dissociation constant (Kd) is 0.025 nM.
